Our source for the binding affinity ratio (IC50 of standard peptide / IC50 of test peptide) (ratio to standard peptide) and relative binding ratio (IC50 of standard peptide / IC50 of test peptide) (ratio to standard peptide) values is US7026443.

The target in the first assay is HLA-A*1101 (human). As to the kind of experiment: competition with 125I-labelled standard peptide on purified HLA-A*1101, gel filtration.
Conditions: not given
Consider CCRSSRTRR (modifications not checked) [… (HPV16 E6, position 146, 9 amino acids)], for which the binding affinity ratio (IC50 of standard peptide / IC50 of test peptide) (ratio to standard peptide) was 0.0001.

AVCDKCLKFY (modifications not checked) [… (HPV16 E6, position 68, 10 amino acids)]: the binding affinity ratio (IC50 of standard peptide / IC50 of test peptide) (ratio to standard peptide) turned out to be 0.019.

As for AVCDKCLK (modifications not checked) [AVCDKCLK (HPV16 E6, position 68, 8 amino acids)], the binding affinity ratio (IC50 of standard peptide / IC50 of test peptide) (ratio to standard peptide) is 0.011.

GNPYAVCDK (modifications not checked) [… (HPV16 E6, position 64, 9 amino acids)]: the binding affinity ratio (IC50 of standard peptide / IC50 of test peptide) (ratio to standard peptide) amounted to 0.0001.

On to CMSCCRSSR (modifications not checked) [… (HPV16 E6, position 143, 9 amino acids)], for which the binding affinity ratio (IC50 of standard peptide / IC50 of test peptide) (ratio to standard peptide) worked out at 0.0001.

The same assay, now with this note: remark: other sources report otherwise.
As to AMFQDPQER (modifications not checked) [… (HPV16 E6, position 7, 9 amino acids)], the binding affinity ratio (IC50 of standard peptide / IC50 of test peptide) (ratio to standard peptide) is 0.032.

For another assay, the target named is HLA-A*0201 (human). As to the kind of experiment: competition with 125I-labeled standard peptide for purified HLA-A*0201, gel filtration.
Conditions: not given
Background: Size exclusion chromatography separates by hydrodynamic size, large species first.
Take LVVESSADDL (modifications not checked) [HPV18 E7 peptide … (position 74, 10 amino acids)]: the relative binding ratio (IC50 of standard peptide / IC50 of test peptide) (ratio to standard peptide) is 0.0001.

On to VVESSADDL (modifications not checked) [HPV18 E7 peptide … (position 75, 9 amino acids)], for which the relative binding ratio (IC50 of standard peptide / IC50 of test peptide) (ratio to standard peptide) amounted to 0.0003.

Take RAFQQLFLNT (modifications not checked) [HPV18 E7 peptide … (position 84, 10 amino acids)]: the relative binding ratio (IC50 of standard peptide / IC50 of test peptide) (ratio to standard peptide) came to 0.0003.

As to HLEPQNEIPV (modifications not checked) [HPV18 E7 peptide … (position 14, 10 amino acids)], the relative binding ratio (IC50 of standard peptide / IC50 of test peptide) (ratio to standard peptide) was determined as 0.0001.

In the case of VLHLEPQNEI (modifications not checked) [HPV18 E7 peptide … (position 12, 10 amino acids)], the relative binding ratio (IC50 of standard peptide / IC50 of test peptide) (ratio to standard peptide) is 0.0001.

With KLVVESSADDL (modifications not checked) [HPV18 E7 peptide … (position 73, 11 amino acids)], the relative binding ratio (IC50 of standard peptide / IC50 of test peptide) (ratio to standard peptide) was determined as 0.0001.

For KLVVESSA (modifications not checked) [HPV18 E7 peptide KLVVESSA (position 73, 8 amino acids)], the relative binding ratio (IC50 of standard peptide / IC50 of test peptide) (ratio to standard peptide) was determined as 0.0001.

On to MLCMCCKCEA (modifications not checked) [HPV18 E7 peptide … (position 61, 10 amino acids)], for which the relative binding ratio (IC50 of standard peptide / IC50 of test peptide) (ratio to standard peptide) came to 0.0016.

The next assay concerns the target HLA-A*0301 (human). The experiment in a line: competitive inhibition of 125I-labelled standard peptide binding to purified HLA-A*0301, gel filtration.
Conditions: not given
Take YCKQQLLRR (modifications not checked) [HPV16 E6 39 …]: the relative binding ratio (IC50 of standard peptide / IC50 of test peptide) (ratio to standard peptide) was found to be 0.0003.

For the molecule QAEPDRAHY (modifications not checked) [HPV16 E7 44 …], the relative binding ratio (IC50 of standard peptide / IC50 of test peptide) (ratio to standard peptide) came to 0.0002.

For the molecule CVQSTHVDIR (modifications not checked) [HPV16 E7 68 …], the relative binding ratio (IC50 of standard peptide / IC50 of test peptide) (ratio to standard peptide) stood at 0.0049.

As to FTFPNPFPF (modifications not checked) [HPV31 E1 566 … (A03 motif peptide)], the relative binding ratio (IC50 of standard peptide / IC50 of test peptide) (ratio to standard peptide) came to 0.0008.

For CCKCDSTLR (modifications not checked) [HPV16 E7 58 …], the relative binding ratio (IC50 of standard peptide / IC50 of test peptide) (ratio to standard peptide) worked out at 0.0003.

The assay is the same for the next values; noted with them: remark: other sources report otherwise.
For the molecule GIVCPICSQK (modifications not checked) [HPV16 E7 88 …], the relative binding ratio (IC50 of standard peptide / IC50 of test peptide) (ratio to standard peptide) was 0.0003.

For the molecule IVCPICSQK (modifications not checked) [HPV16 E7 89 …], the relative binding ratio (IC50 of standard peptide / IC50 of test peptide) (ratio to standard peptide) amounted to 0.0077.

As to HGDTPTLHEY (modifications not checked) [HPV16 E7 2 …], the relative binding ratio (IC50 of standard peptide / IC50 of test peptide) (ratio to standard peptide) is 0.0001.
